Reference: the Human Domainome abundance scans (Beltran et al. 2025)

B1: Integrator complex subunit 12, residues 155 to 213; numbered along this chain, Q96CB8 (parent)
chain: AMEMGLACVVCRQMMVASGNQLVECQECHNLYHRDCHKPQVTDKEANDPRLVWYCARCT

Variants of: B1
Experiment: abundance fitness (aPCA) (normalised: wild type 0, dead -1); higher = more abundant; growth selection in yeast, the domain comes from the species named
Conditions: Homo sapiens

Abundance fitness of substitutions, site by site:
Q40: T 0.02 | E -0.04 | W -0.102 | I 0.023 | A -0.002 | K -0.035 | C 0.148 | V -0.063 | H -0.055 | Y -0.264 | P -0.009 | F -0.023 | D -0.07 | L -0.045 | G 0.001 | N 0.051 | M -0.112
D43: W -0.189 | A -0.05 | Y -0.161 | S -0.074 | C -0.078 | I -0.073 | P -0.093 | N 0.043 | L -0.098 | E -0.037 | F -0.118 | R -0.25 | Q -0.123 | M -0.056 | K -0.163 | V -0.057 | T -0.08 | H -0.155
Y32: V -0.159 | F 0.003 | A -0.128 | W 0.045 | E -0.388 | T -0.263 | M -0.143 | K -0.514 | S -0.315 | Q -0.3 | P -0.611 | L -0.152 | G -0.335 | D -0.525 | H -0.254 | R -0.308 | C -0.207
L31: K 0.103 | C 0.047 | M -0.008 | R 0.091 | Y 0.047 | F 0.075 | I 0.01 | E -0.358 | S 0.046 | Q 0.084 | W 0.101 | H 0.057 | T 0.055 | A 0.04 | P -0.164 | N 0.027 | G -0.048
D48: K -0.027 | R -0.154 | Y -0.178 | G -0.083 | T 0.016 | C -0.265 | H -0.081 | I -0.187 | S -0.119 | F -0.254 | Q -0.002 | L -0.138 | W -0.149 | E -0.054 | V -0.063 | P -0.214 | N -0.128 | M -0.085
C36: S -0.716 | I -0.691 | N -0.615 | Q -0.672 | K -0.79 | D -0.802 | L -0.763 | M -0.63 | R -0.619 | G -0.606 | A -0.671 | W -0.843 | P -0.585 | Y -0.727 | E -0.696 | T -0.588 | V -0.73 | H -0.516 | F -0.775
A46: Q -0.079 | V 0.008 | W -0.063 | R -0.089 | K 0.05 | P -0.202 | T -0.136 | D -0.092 | N -0.082 | E -0.061 | I -0.077 | H -0.181 | C -0.149 | L 0.003 | M -0.201 | Y -0.029 | G -0.029 | S -0.075 | F 0.07
P49: D 0.026 | F -0.333 | C -0.318 | E 0.027 | A -0.046
R34: G 0.066 | L 0.037 | I -0.019 | T 0.005 | S 0.009 | Y 0.058 | E -0.016 | Q 0.082 | A -0.054 | K 0.229 | P 0.067 | V -0.018 | C -0.17 | W 0.143 | M 0.005 | F 0.016 | H -0.083
T42: P 0.039 | A -0.024 | W -0.198 | C 0.069 | E -0.066 | H -0.089 | Q -0.064 | Y -0.165 | G 0 | V -0.136 | M -0.153 | K -0.01 | F -0.24 | I -0.281 | D -0.107 | N -0.041
N47: A -0.166 | S 0.035 | Q -0.092 | W -0.154
